For one substance, precipitation of soluble α-crystallin from 200 µg of CLE after incubation with increasing amounts of peptide (up to 50 µg), 16 h, 37°C; supernatant analysed by MALS and Bis-ANS fluorescence (hydrophobicity) of α-crystallin (100 µg) with 10 or 20 µg of peptide, 50 mM phosphate buffer pH 7.2, 60 min results are on record in article PMC3084282.

Bounds are passed on as bounds.

The target of experiment [1] is α-crystallin (bovine lens) (bovine (endogenous in calf lens)) (UniProt P02470).
Experiment [2] has the same target. This is another data set of the same source.

UniProt P02470, sequence (P02470 whole entry, chain 1 of 2): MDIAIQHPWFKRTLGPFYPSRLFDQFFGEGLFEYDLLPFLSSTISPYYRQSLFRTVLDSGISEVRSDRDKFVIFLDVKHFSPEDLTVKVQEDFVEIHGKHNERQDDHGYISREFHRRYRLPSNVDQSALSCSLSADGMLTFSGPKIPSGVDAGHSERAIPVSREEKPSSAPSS
UniProt P02470, sequence (P02510 whole entry, chain 2 of 2, further chain): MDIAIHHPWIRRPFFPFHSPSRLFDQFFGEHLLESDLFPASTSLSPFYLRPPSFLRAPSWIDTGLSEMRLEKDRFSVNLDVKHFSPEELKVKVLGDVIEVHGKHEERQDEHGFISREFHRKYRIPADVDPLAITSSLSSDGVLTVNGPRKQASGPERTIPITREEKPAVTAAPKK

Regarding αA-(66-80) peptide, the precipitation of soluble α-crystallin from 200 µg of CLE after incubation with increasing amounts of peptide (up to 50 µg), 16 h, 37°C; supernatant analysed by MALS in experiment [1] was > 50%. In experiment [2], this substance displayed a Bis-ANS fluorescence (hydrophobicity) of α-crystallin (100 µg) with 10 or 20 µg of peptide, 50 mM phosphate buffer pH 7.2, 60 min of 30%.
